# Measured values from patent US20150133308A1 (KOREA ADVANCED INSTITUTE OF SCIENCE AND TECHNOLOGY, published 2015).
# Target: T1, human interleukin-6 (human, UniProt P05231 30-212)
# T1 construct: also called hIL-6; IL-6
# Assay: phage ELISA, 96-well plate coated with IL-6 and BSA
binder,measurement,value
"r-B10 (designed binder, on phage in the ELISA) ETITVSTPIKQIFPDDAFAETIKANLKKKSVTDAVTQNELNSIDQIIANNSDIKSVQGIQYLPNVRYLALGGNKLHDISALKELTNLTYLVLDPNQLQSLPNGVFDKLTNLKELSLWTNQLQSLPDGVFDKLTNLTYLNLAHNQLQSLPKGVFDKLTNLTELDLSYNQLQSLPEGVFDKLTQLKDLRLYQNQLKSVPDGVFDRLTSLQYIWLHDNPWDCTCPGIRYLSEWINKHSGVVRNSAGSVAPDSAKCSGSGKPVRSIICPT",OD450 on IL-6 relative to BSA,≥ 10 fold
"r-F7 (designed binder, on phage in the ELISA) ETITVSTPIKQIFPDDAFAETIKANLKKKSVTDAVTQNELNSIDQIIANNSDIKSVQGIQYLPNVRYLALGGNKLHDISALKELTNLTYLVLDPNQLQSLPNGVFDKLTNLKELSLWTNQLQSLPDGVFDKLTNLTYLNLAHNQLQSLPKGVFDKLTNLTELDLSYNQLQSLPEGVFDKLTQLKDLRLYQNQLKSVPDGVFDRLTSLQYIWLHDNPWDCTCPGIRYLSEWINKHSGVVRNSAGSVAPDSAKCSGSGKPVRSIICPT",OD450 on IL-6 relative to BSA,≥ 10 fold
